Measurements as given in the Human Domainome abundance scans (Beltran et al. 2025).
± gives the uncertainty stated by the source.

B1: Gamma-crystallin C, residues 91 to 170; numbered along this chain, P07315 (parent)
chain: RLYEREDHKGLMMELSEDCPSIQDRFHLSEIRSLHVLEGCWVLYELPNYRGRQYLLRPQEYRRCQDWGAMDAKAGSLRRV

Variants of: B1
Test: abundance fitness (aPCA) (normalised: wild type 0, dead -1); higher = more abundant; growth selection in yeast, the domain comes from the species named
Conditions: Homo sapiens

Going from D66Q to D66P, the abundance fitness falls from -0.491 ± 0.12 to -0.879 ± 0.17.

D66W and D66H are within error of each other in abundance fitness: -0.639 ± 0.18 for the first, -0.548 ± 0.23 for the second.

Going from D66V to D66S, the abundance fitness rises from -0.749 ± 0.15 to -0.316 ± 0.06.

Compared with D66R, D66L is higher in abundance fitness: -0.857 ± 0.14 for the first, -0.518 ± 0.054 for the second.

D66Y and D66T are within error of each other in abundance fitness: -0.603 ± 0.27 for the first, -0.934 ± 0.29 for the second.

Compared with D66E, D66C is lower in abundance fitness: -0.083 ± 0.14 for the first, -0.485 ± 0.22 for the second.

D66A and D66M are within error of each other in abundance fitness: -0.313 ± 0.12 for the first, -0.47 ± 0.13 for the second.

R52L and R52T are within error of each other in abundance fitness: -0.219 ± 0.087 for the first, -0.058 ± 0.16 for the second.

R52C and R52I are within error of each other in abundance fitness: -0.587 ± 0.31 for the first, -0.31 ± 0.19 for the second.

Going from R52A to R52W, the abundance fitness falls from 0.009 ± 0.11 to -0.523 ± 0.16.

R52Q and R52G are within error of each other in abundance fitness: -0.128 ± 0.13 for the first, -0.402 ± 0.21 for the second.

R52H and R52D are within error of each other in abundance fitness: -0.324 ± 0.19 for the first, -0.338 ± 0.12 for the second.

R52P and R52N are within error of each other in abundance fitness: -0.093 ± 0.16 for the first, -0.031 ± 0.49 for the second.

R52V and R52E are within error of each other in abundance fitness: -0.137 ± 0.1 for the first, -0.28 ± 0.19 for the second.

R52S and P47Q are within error of each other in abundance fitness: -0.234 ± 0.12 for the first, -0.348 ± 0.13 for the second.

P47C and P47A are within error of each other in abundance fitness: -0.109 ± 0.25 for the first, -0.07 ± 0.059 for the second.

P47D and P47T are within error of each other in abundance fitness: -0.178 ± 0.094 for the first, -0.449 ± 0.34 for the second.

P47L and P47R are within error of each other in abundance fitness: -0.601 ± 0.12 for the first, -0.502 ± 0.086 for the second.

P47V and P47W are within error of each other in abundance fitness: -0.591 ± 0.13 for the first, -0.832 ± 0.27 for the second.

First: P47Y
Second: E45T
The abundance fitness of the first is lower: -0.891 ± 0.36 for the first, -0.118 ± 0.068 for the second.

Going from E45W to E45S, the abundance fitness rises from -0.644 ± 0.15 to -0.149 ± 0.071.

Q65D and Q65M are within error of each other in abundance fitness: -0.355 ± 0.2 for the first, -0.283 ± 0.12 for the second.

Q65N and Q65A are within error of each other in abundance fitness: -0.129 ± 0.16 for the first, -0.075 ± 0.049 for the second.

Q65K and Q65H are within error of each other in abundance fitness: -0.06 ± 0.12 for the first, -0.242 ± 0.2 for the second.

Q65C and Q65I are within error of each other in abundance fitness: -0.265 ± 0.11 for the first, -0.336 ± 0.27 for the second.

Q65G and Q65F are within error of each other in abundance fitness: -0.08 ± 0.1 for the first, -0.248 ± 0.15 for the second.

Q65Y and Q65V are within error of each other in abundance fitness: -0.149 ± 0.16 for the first, 0.071 ± 0.11 for the second.

Q65R and Q65E are within error of each other in abundance fitness: -0.173 ± 0.061 for the first, -0.044 ± 0.15 for the second.

Going from Q65S to Q65P, the abundance fitness falls from -0.02 ± 0.059 to -0.687 ± 0.089.

Q65T and Q65L are within error of each other in abundance fitness: -0.032 ± 0.074 for the first, -0.17 ± 0.073 for the second.

Y61I and Y61M are within error of each other in abundance fitness: -0.808 ± 0.37 for the first, -0.964 ± 0.2 for the second.

Going from Y61C to Y61T, the abundance fitness rises from -0.934 ± 0.14 to -0.529 ± 0.12.

Y61P and Y61L are within error of each other in abundance fitness: -1.07 ± 0.2 for the first, -0.922 ± 0.15 for the second.

Y61H and Y61V are within error of each other in abundance fitness: -0.919 ± 0.32 for the first, -1.05 ± 0.26 for the second.

Y61R and Y61S are within error of each other in abundance fitness: -1.06 ± 0.21 for the first, -0.936 ± 0.12 for the second.

Y61A and Y61G are within error of each other in abundance fitness: -1.04 ± 0.34 for the first, -0.925 ± 0.16 for the second.

Compared with Q59P, Q59W is higher in abundance fitness: -0.994 ± 0.23 for the first, -0.486 ± 0.073 for the second.

Q59C and Q59A are within error of each other in abundance fitness: -0.052 ± 0.12 for the first, 0.041 ± 0.1 for the second.

Q59V and Q59F are within error of each other in abundance fitness: -0.266 ± 0.1 for the first, -0.377 ± 0.14 for the second.

First: Q59R
Second: Q59K
The abundance fitness of the first is lower: -0.047 ± 0.062 for the first, 0.135 ± 0.11 for the second.

Q59S and Q59D are within error of each other in abundance fitness: -0.116 ± 0.06 for the first, -0.217 ± 0.3 for the second.

Going from Q59H to Q59G, the abundance fitness rises from -0.245 ± 0.1 to 0.02 ± 0.055.

Q59N and Q59M are within error of each other in abundance fitness: -0.364 ± 0.34 for the first, -0.038 ± 0.12 for the second.

Q59E and Q59L are within error of each other in abundance fitness: -0.354 ± 0.19 for the first, -0.438 ± 0.078 for the second.

Q59I and E60T are within error of each other in abundance fitness: -0.145 ± 0.088 for the first, -0.081 ± 0.07 for the second.

E60I and E60H are within error of each other in abundance fitness: -0.219 ± 0.18 for the first, -0.174 ± 0.095 for the second.

E60Y and E60K are within error of each other in abundance fitness: -0.069 ± 0.14 for the first, -0.197 ± 0.18 for the second.

First: E60F
Second: E60A
The abundance fitness of the first is lower: -0.468 ± 0.35 for the first, 0.045 ± 0.06 for the second.

E60Q and E60M are within error of each other in abundance fitness: 0.034 ± 0.1 for the first, -0.162 ± 0.13 for the second.

E60V and E60D are within error of each other in abundance fitness: -0.117 ± 0.09 for the first, -0.235 ± 0.19 for the second.

First: E60L
Second: E60P
The abundance fitness of the first is higher: -0.001 ± 0.047 for the first, -0.142 ± 0.062 for the second.

Going from E60R to E60C, the abundance fitness falls from 0.006 ± 0.071 to -0.172 ± 0.1.

Compared with E60S, E60W is lower in abundance fitness: -0.018 ± 0.067 for the first, -0.206 ± 0.084 for the second.

Going from G51W to G51V, the abundance fitness falls from -0.268 ± 0.18 to -0.93 ± 0.2.

G51L and G51P are within error of each other in abundance fitness: -0.807 ± 0.19 for the first, -1.03 ± 0.49 for the second.

G51T and G51R are within error of each other in abundance fitness: -0.49 ± 0.11 for the first, -0.589 ± 0.098 for the second.

G51H and G51C are within error of each other in abundance fitness: -0.752 ± 0.46 for the first, -0.695 ± 0.27 for the second.

G51A and G51S are within error of each other in abundance fitness: -0.833 ± 0.27 for the first, -0.962 ± 0.18 for the second.

L55A and L55M are within error of each other in abundance fitness: -0.09 ± 0.086 for the first, -0.01 ± 0.084 for the second.

L55I and L55F are within error of each other in abundance fitness: 0.075 ± 0.12 for the first, -0.078 ± 0.12 for the second.

First: L55H
Second: L55D
The abundance fitness of the first is higher: -0.053 ± 0.14 for the first, -0.441 ± 0.21 for the second.

L55Q and L55G are within error of each other in abundance fitness: -0.067 ± 0.089 for the first, -0.082 ± 0.089 for the second.

L55K and L55W are within error of each other in abundance fitness: -0.161 ± 0.17 for the first, -0.098 ± 0.092 for the second.

L55T and L55E are within error of each other in abundance fitness: 0.1 ± 0.093 for the first, -0.074 ± 0.14 for the second.

L55C and L55S are within error of each other in abundance fitness: -0.241 ± 0.15 for the first, -0.08 ± 0.05 for the second.

Going from L55V to L55Y, the abundance fitness rises from -0.087 ± 0.066 to 0.161 ± 0.18.

Compared with R63A, R63E is lower in abundance fitness: -0.056 ± 0.043 for the first, -0.234 ± 0.091 for the second.

Compared with R63P, R63M is higher in abundance fitness: -1.02 ± 0.18 for the first, -0.32 ± 0.11 for the second.

Going from R63Q to R63D, the abundance fitness falls from -0.089 ± 0.05 to -0.58 ± 0.16.

R63C and R63T are within error of each other in abundance fitness: -0.15 ± 0.14 for the first, 0.016 ± 0.076 for the second.

Going from R63S to R63L, the abundance fitness falls from -0.091 ± 0.057 to -0.654 ± 0.052.

R63H and R63Y are within error of each other in abundance fitness: -0.167 ± 0.12 for the first, -0.23 ± 0.18 for the second.

Compared with R63F, Y54P is lower in abundance fitness: -0.574 ± 0.18 for the first, -1 ± 0.2 for the second.

Compared with Y54E, Y54F is higher in abundance fitness: -1.19 ± 0.48 for the first, -0.118 ± 0.22 for the second.

Y54L and Y54R are within error of each other in abundance fitness: -0.727 ± 0.15 for the first, -0.897 ± 0.11 for the second.

Y54M and Y54Q are within error of each other in abundance fitness: -0.692 ± 0.23 for the first, -0.783 ± 0.27 for the second.

Y54I and Y54W are within error of each other in abundance fitness: -0.395 ± 0.21 for the first, -0.36 ± 0.1 for the second.

Y54S and Y54G are within error of each other in abundance fitness: -0.614 ± 0.077 for the first, -0.968 ± 0.32 for the second.

Y54A and Y54K are within error of each other in abundance fitness: -0.891 ± 0.23 for the first, -0.76 ± 0.21 for the second.

Y54T and W67L are within error of each other in abundance fitness: -0.717 ± 0.17 for the first, -0.951 ± 0.14 for the second.

W67P and W67K are within error of each other in abundance fitness: -0.935 ± 0.17 for the first, -0.827 ± 0.36 for the second.

W67S and W67T are within error of each other in abundance fitness: -0.778 ± 0.11 for the first, -0.612 ± 0.27 for the second.

W67E and W67G are within error of each other in abundance fitness: -1.07 ± 0.49 for the first, -1 ± 0.19 for the second.

In the case of W67R, the abundance fitness is reported as -0.744 ± 0.1.
